Source: article PMC11063191, “Galectin-3 impairs calcium transients and β-cell function” (Nature Communications, 2024)

Target: T1, Mouse Gal3 protein (recombinant) (mouse, UniProt P16110 1-264)
T1 construct: Galectin-3, mouse, bought protein; R&D is named as the source only for the BLI assay; also called galectin-3; source: bought: R&D
Experiment: BLI; His-tagged CACNG1 (30-109) captured on Ni-NTA biosensors, Gal3 in a concentration gradient, Octet (ForteBio), 30 °C
Conditions: both partners purified

T1 sequence (P16110 whole entry): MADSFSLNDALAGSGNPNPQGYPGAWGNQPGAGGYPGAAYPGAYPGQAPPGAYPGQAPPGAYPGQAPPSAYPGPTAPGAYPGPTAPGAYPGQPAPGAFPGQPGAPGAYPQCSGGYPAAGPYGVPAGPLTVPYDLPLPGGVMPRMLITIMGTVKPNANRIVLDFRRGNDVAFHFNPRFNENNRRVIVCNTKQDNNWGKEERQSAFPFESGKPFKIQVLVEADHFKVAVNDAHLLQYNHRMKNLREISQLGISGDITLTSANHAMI

B1: Extracellular domains of mouse CACNG1 (30-109 AA) with His tags (domain or fragment, UniProt O70578 30-109, looked up)
chain: DHWAVLSPHLEHHNETCEAAHFGLWRICTARVAVHNKDKSCEHVTPSGEKNCSYFRHFNPGESSEIFEFTTQKEYSISAA
modifications: includes the two glycosylation sites
notes: CACNG1, mouse, extracellular domains, residues 30-109, including the two glycosylation sites
Kd: 180 nM
